Positions of bridges follow the written chain, without caps; N, C: chain ends. No end group written: not given here.
Legend:
human IGFBP-1 [1] = target: T1, human IGFBP-1 (human, UniProt P08833 26-259); assay: competitive phage ELISA
T1 sequence (looked up): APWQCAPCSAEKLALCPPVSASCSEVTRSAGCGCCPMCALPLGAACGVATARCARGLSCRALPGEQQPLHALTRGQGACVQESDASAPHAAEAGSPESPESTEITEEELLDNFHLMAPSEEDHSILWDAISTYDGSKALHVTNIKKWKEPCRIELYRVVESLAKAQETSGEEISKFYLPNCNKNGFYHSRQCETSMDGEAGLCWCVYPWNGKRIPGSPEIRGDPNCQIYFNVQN
Protocol: E. coli cells (XL1-Blue, Stratagene) freshly transformed with phagemid vector were grown overnight in 5 mL 2YT medium (Sambrook et al., supra) in the presence of M13-VCS helper phage (Stratagene). Phage particles were harvested and resuspended in PBS buffer as described in Lowman, H. B., “Phage Display of Peptide Libraries on Protein Scaffolds,” in Cabilly, S. (ed.), Combinatorial Peptide Library Protocols (Humana Press Inc.: Totowa, N.J., 1998), pp. 249-264. Then phage concentrations were normalized to yield a maximal ELISA signal of 0.2-0.4 for each mutant (Lowman, in Cabilly, S. (ed.), supra). Threefold serial dilutions of soluble competitor were prepared on non-absorbent microtiter plates (Nunc, F, 96 wells) with binding buffer (0.5% TWEEN 20%/PBS) containing phage at the previously determined concentrations. […] After blocking, the plates containing immobilized target were washed with 0.05% TWEEN™/PBS buffer and subsequently incubated with 80 μl/well of the premixed phage-competitor solutions for 1 hour at room temperature. […] IC₅₀ values were determined by fitting the binding data to a generic saturation curve (Lowman, in Cabilly, S. (ed.), supra). At least two individual clones of each IGF-1 mutant were assayed. Numbers in Table XIII represent mean±standard deviation of individually assessed IC₅₀ values.

human IGFBP-1 [2] = target: T1, human IGFBP-1; assay: competitive phage ELISA, value as restated in Table XIV (Table XIII prints 7.0 for the same pair)
human IGFBP-1 [3] = target: T1, human IGFBP-1; assay: BIAcore inhibition, 9-10 nM IGFBP-1 to immobilized IGF-1
human IGFBP-1 [4] = target: T1, human IGFBP-1; assay: BIAcore inhibition assay; reference
human IGFBP-1 [5] = target: T1, human IGFBP-1; assay: BIAcore inhibition assay
human IGFBP-1 [6] = target: T1, human IGFBP-1; assay: BIAcore inhibition assay; remark: listed apart in the source
Protocol: Peptides were assayed in a BIAcore™ assay as described in WO 98/45427, supra.

human IGFBP-1 [7] = target: T1, human IGFBP-1; assay: inhibition assays
human IGFBP-1 [8] = target: T1, human IGFBP-1; assay: BIAcore kinetics, IGFBP-1 coupled to chip
Protocol: For each dilution of peptides, a global fit of the sensorgram data was performed using a 1:1 Langmuir binding model.

IGF-1 F16A displayed on phage (from UniProt P69168 267-424) (ligand)
relative IC50 (mut/G1S-A70V) (human IGFBP-1 [1]): 7
relative IC50 (mut/G1S-A70V) (human IGFBP-1 [2]): 6

B1: BP1-625 (peptide)
peptide: GQQSCAAGPLQWLCEHYFSTYGR
modifications: not fully specified (bridges); cysteine pairing not given here
fold improved potency over BP1-01 (human IGFBP-1 [3]): ~20 fold

B2: BP1-01 (peptide)
peptide: CRAGPLQWLCEKYFG
modifications: disulfide 1-10
fold potency reduction, IC50 (BP1-01)/IC50 (mut) (human IGFBP-1 [4]): 1

B3: (i+7)B (peptide)
peptide: Ac-LEWLAEKYEG
modifications: linker 2-9 via 1,5‑diaminopentane
binding result (human IGFBP-1 [5]): no binding (tested: >360-fold weaker than BP1-01)
fold potency reduction, IC50 (BP1-01)/IC50 (mut) (human IGFBP-1 [6]): > 360

B4: BP1-25 (peptide)
peptide: EARVCRAGPLQWLCEKYFSTY
modifications: disulfide 5-14
fold affinity improvement over BP1-16 (human IGFBP-1 [7]): ~20 fold
Kd (human IGFBP-1 [8]): 42 nM
